The text below walks through data of patent US20170189510A1.

Bounds are passed on as bounds.

This assay deals with HLA-A*24 (human). Put plainly: UV-ligand exchange, anti-b2m ELISA. On the technique in general: ELISA stands for enzyme-linked immunosorbent assay.

As for KYPVEWAKF [peptide SEQ ID No 289 …], the peptide exchange yield is over 75%.
The molecule TYSVSFPMF [peptide SEQ ID No 195 …] returned a peptide exchange yield of over 75%.
For the molecule TYGDAGLTYTF [peptide SEQ ID No 283 …], the peptide exchange yield was in the range of 50 to 75%.
Regarding YYEVHKELF [peptide SEQ ID No 175 …], the peptide exchange yield is over 75%.
Molecule VYTLDIPVL [peptide SEQ ID No 160 …] had a peptide exchange yield of over 75%.
Turning to VYVGGGQIIHL [peptide SEQ ID No 174 …], the peptide exchange yield lay in the range of 50 to 75%.
Take YYVESGKLF [peptide SEQ ID No 166 …]: the peptide exchange yield is over 75%.
AYTLIAPNI [peptide SEQ ID No 169 …] gave a peptide exchange yield of 50 to 75%.
KYQDILETI [peptide SEQ ID No 168 …] returned a peptide exchange yield of over 75%.
The molecule EYNQWFTKL [peptide SEQ ID No 176 …] yielded a peptide exchange yield of 50 to 75%.
The molecule VYVSDIQEL [peptide SEQ ID No 288 …] yielded a peptide exchange yield of 50 to 75%.
To NYINRILKL [peptide SEQ ID No 167 …] belongs over 75%.
LYNKGFIYL [peptide SEQ ID No 159 …]: the peptide exchange yield is over 75%.
In turn, HYSQELSLLYL [peptide SEQ ID No 158 …] registered a peptide exchange yield of over 75%.
To IYLVSIPEL [peptide SEQ ID No 161 …] belongs over 75%; to VYEDQVGKF [peptide SEQ ID No 170 …], 20 to 49%; to IYSWILDHF [peptide SEQ ID No 173 …], over 75%.
On to KFSSFSLFF [peptide SEQ ID No 164 …], for which the peptide exchange yield fell in the range of 50 to 75%.
In turn, LFIPSSKLLFL [peptide SEQ ID No 171 …] came in with a peptide exchange yield of 50 to 75%.
Regarding RYAEEVGIF [peptide SEQ ID No 199 …], the peptide exchange yield lay within 50 to 75%.
As to RYPDNLKHL [peptide SEQ ID No 286 …], the peptide exchange yield lay in the range of 20 to 49%.
As for EYSLFPGQVVI [peptide SEQ ID No 197 …], the peptide exchange yield was in the range of 50 to 75%.
The value for DYTTWTALL [peptide SEQ ID No 165 …] was over 75%; that for VFTRVSSFL [peptide SEQ ID No 162 …] was 50 to 75%; that for RYLNKAFHI [peptide SEQ ID No 284 …] was 50 to 75%.
To DYLKGLASF [peptide SEQ ID No 163 …] belongs over 75%; to LYIDRPLPYL [peptide SEQ ID No 196 …], 50 to 75%.
